Source: the nanobody polyreactivity screen of Harvey et al. (2022)

Assay: yeast display, Sf9 membrane polyspecificity reagent, FACS + sequencing; frameworks hold sequencing errors
Outline: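 Galactose induction of a Saccharomyces cerevisiae BJ5465 synthetic nanobody display library ran 36–48 hours. The cells were then stained for 1 hour at 4 °C with 10% biotinylated, detergent-solubilized Sf9 membrane reagent, pulled down on streptavidin microbeads and FACS-sorted into low and high (top ~1%) gates on expression and reagent-binding fluorescence. Labels for polyreactivity follow the gate of origin.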

Which “polyreactivity (PSR sort gate)” value does the source give for “QVQLVESGGGLVQAGGSLRLSCAASGRTFPVYAMGWYRQAPGKERELVAGITGSGGRTYYADSVKGRFTISRDNAKNTVYLQMNSLKPEDTAVYYCAADRNLYWYQHEYCGQGTQVTVSS” here?
Its value is “low polyreactivity”.

Which “polyreactivity (PSR sort gate)” value does the source give for “QVQLVESGGGLVQAGGSLRLSCAASGRTFPVYAMGWYRQAPGKERELVATIRRRDGSTYADSVKGRFTISRDNAKNTVYLQMNSLKPEDTAVYYCNAAYRQATPWYYAWYDYWGQVTQVTVSS” here?
The value was “high polyreactivity”.

For “QVQLVESGGGLVQAGGSLRLSCAASGRTFPWYAMGWYRQAPGKERELVAAITISGGRTYYADSVKGRFTISRDNAKNTVYLQMNSLKPEDTAVYYCAAKTSFRYFNYAKPSYGYDYWGQGTQVTVSS”, which “polyreactivity (PSR sort gate)” value is on record?
The value was “high polyreactivity”.

Which “polyreactivity (PSR sort gate)” value does the source give for “QVQLVESGGGLVQAGGSLRLSCAASGRTFPYNARGLYRQAPGKERELVASITRRGGSTYYADSVKGRFTISLDNAKNSVYLQMNSVKPEDTAVYYCNAAYPYVRRYKYGYWGQGTLVTVSS” here?
Its value is “high polyreactivity”.

Which “polyreactivity (PSR sort gate)” value does the source give for “QVQLVESGGGLVQAGGSLRLSCAASGRTFPYYAKGWYRQAPGKERELVAAISKRGGNTYYADSVKGRFTISRDNAKNTVYLQLNSLIPEVTAVYYCNALSSTEYDYWGQGTQVTVSS” here?
Its value is “high polyreactivity”.

For “QVQLVESGGGLVQAGGSLRLSCAASGRTFPYYAMGWYRQAPGKERELVAAISSSGGRTYYADSVKGRFTISRDNAKNTVYLQMISLKPEDSAVYDCNVDAWYPYQGFLVGYYYWGQGTQVTVSS”, which “polyreactivity (PSR sort gate)” value is on record?
The value was “low polyreactivity”.

Which “polyreactivity (PSR sort gate)” value does the source give for “QVQLVESGGGLVQAGGSLRLSCAASGRTFPYYAMGWYRQAPGKERELVATITYSGGSTYYADSVKGRFTISRDNAKNTVYLQMNSLKPEDTAVYYCAADTGEYSAQYDYWGQGTQVTVSS” here?
The value was “high polyreactivity”.

With “QVQLVESGGGLVQAGGSLRLSCAASGRTFPYYDMGWYRQAPGKERELVAAITSGGTTNYADSVKGRFTISRDNAKNTVYLQMNSLKPEDTAVYYCAAGSPWYYFSSYGYWGQGTQVTVSS” as the sequence, how does the “polyreactivity (PSR sort gate)” value read?
The value was “low polyreactivity”.

Which “polyreactivity (PSR sort gate)” value does the source give for “QVQLVESGGGLVQAGGSLRLSCAASGRTFPYYTMGWYRQAPGKERELVAAINSSGGRTYYADSVKGRFTISRDNAKNTVYLQMNSLKPEDTAAYYCAKRGYYKYDWGQGTQVTVSS” here?
Its value is “high polyreactivity”.

Which “polyreactivity (PSR sort gate)” value does the source give for “QVQLVESGGGLVQAGGSLRLSCAASGRTFQDYALGWSRQAPGKEREFVADISDGGSTNYADSVKGRFTISRDNAKNTVYLQMNSLKPEVTAVYYCAADQYHGVGINFRSDYDYWGHGTQVTVSS” here?
Its value is “low polyreactivity”.

Which “polyreactivity (PSR sort gate)” value does the source give for “QVQLVESGGGLVQAGGSLRLSCAASGRTFQFYAMGWYRQAPGKERELVAAIDLRGGSTYYADSVKGRFTISRDNAKNTVYLQMNSLKPEDTAVYYCNATRSKFGYFYRYDYWGQGTQVTVSS” here?
Its value is “low polyreactivity”.

For “QVQLVESGGGLVQAGGSLRLSCAASGRTFQHYVMGWYRQAPGKERELVDSITNDDSTNYADSVKGRFTISRDNAKITVYLQMNRLKPEDTAVYYCNFDDWGTPVEPGDYDYWGQGTQVTVSS”, which “polyreactivity (PSR sort gate)” value is on record?
The value was “low polyreactivity”.

For “QVQLVESGGGLVQAGGSLRLSCAASGRTFQNNAMGWYRQAPGKERELVAAISRSGASTYYADSVKGRFTISRDNAKNTVYLQMNSLKPEATAVYYCAAVTKLGYPPVNHLEDDYWGQGTQVTVSS”, which “polyreactivity (PSR sort gate)” value is on record?
Its value is “low polyreactivity”.

For “QVQLVESGGGLVQAGGSLRLSCAASGRTFQNNAMGWYRQAPGKERELVAAISWRGTSTYYADSVKGRFTISRDNANNTVYLQMNSLKPEDTAVYYCAAYPKYGFEFKYGYWGQGTQVTVSS”, which “polyreactivity (PSR sort gate)” value is on record?
Its value is “high polyreactivity”.

Which “polyreactivity (PSR sort gate)” value does the source give for “QVQLVESGGGLVQAGGSLRLSCAASGRTFQQNAMGWYRQAPGKERELVAAINSRGGRTYYADSVKGRFTISRDNAKNTVYLQMNSLKPEDTAVYYCNAVVYTRPYTRPRYRYDYWGQGTQVTVSS” here?
Its value is “high polyreactivity”.

For “QVQLVESGGGLVQAGGSLRLSCAASGRTFQRNAMGWYRQAPGKERELVAAITTGSRTYYADSVKGRFTISRDNAKNTVYLQMNSLKPEDTAFYYCAAVATRRDYGYWGQGTQVTVLS”, which “polyreactivity (PSR sort gate)” value is on record?
Its value is “high polyreactivity”.

For “QVQLVESGGGLVQAGGSLRLSCAASGRTFQRYAMGWYRQAPGKERELVAAISFSGGSTYYADSVKGRFTISRDNAKNTVYLQMNSLKPEDTAVYYCAAYHARSGYDSWGQGTQVTVSS”, which “polyreactivity (PSR sort gate)” value is on record?
The value was “high polyreactivity”.

For “QVQLVESGGGLVQAGGSLRLSCAASGRTFQTNVMGWYRQAPGKERELVAAISKTGGRTYYADSVKGRFTISRDNAKNTVYLQMNSLKPEDTAVYYCAADSSGYEDYDYWGQGTQVTVSS”, which “polyreactivity (PSR sort gate)” value is on record?
Its value is “high polyreactivity”.

Which “polyreactivity (PSR sort gate)” value does the source give for “QVQLVESGGGLVQAGGSLRLSCAASGRTFQWYAMGWYRQAPGKERELVAAISYSDASTYYADSVKGRFTISRDNAKNTVYLQMNSLKPEDTAVYYCAAVYYVVYGPWGGSYYWGQGTQVTVSS” here?
The value was “low polyreactivity”.

With “QVQLVESGGGLVQAGGSLRLSCAASGRTFQWYVMGWYRQAPGKERELVAAITKSGGSTFYADSVKGRFTISRDNAKNTVYLQMNSLKPEDTAVYYCAASGRYAIVLGDQYYGYYYWGQGTQVTVSS” as the sequence, how does the “polyreactivity (PSR sort gate)” value read?
Its value is “high polyreactivity”.

With “QVQLVESGGGLVQAGGSLRLSCAASGRTFQYNTMGWYRQAPGKERELVAAISWSGGRTYYADSVKGRFTISRDNAKNTVYLQMNSLKPEDTAVYYCAADGTPEIRDNYWGQGTQVTVSS” as the sequence, how does the “polyreactivity (PSR sort gate)” value read?
The value was “high polyreactivity”.

For “QVQLVESGGGLVQAGGSLRLSCAASGRTFQYYAMGWYRQAPGKERELVATISYSGGSTSYADSVKGRFTISRDNAKNTVYLQMNSLKPEDTAVYYCAADYYYGDALSPYYPHWDFYYWGQGTQVTVSS”, which “polyreactivity (PSR sort gate)” value is on record?
The value was “low polyreactivity”.

For “QVQLVESGGGLVQAGGSLRLSCAASGRTFRANAMGWYRQAPGKERELVAAISKRGGNTYYADSVKGRFTISRDNAKYTVYLQMNSLKPEDTAVYYCAAHFIGRDYDYWGQGTQVTVSS”, which “polyreactivity (PSR sort gate)” value is on record?
Its value is “high polyreactivity”.

Which “polyreactivity (PSR sort gate)” value does the source give for “QVQLVESGGGLVQAGGSLRLSCAASGRTFRANTMGWYRQAPGKERELVAAISHSGGSTYYADSVKGRFTISRDNAKYTVYLQMISLKPEDTAVYYCATDGGSYSWASPRVDYWGQGTQVTVSS” here?
The value was “low polyreactivity”.

With “QVQLVESGGGLVQAGGSLRLSCAASGRTFRAYAMGWNRQPPGKVRELVAVISLSGGSTYYADSVKGRFTISRDNAKNTVYLQMNSLKPEDTAVYYCAAVDWSYTGWRYDYWGQGTQVTVSS” as the sequence, how does the “polyreactivity (PSR sort gate)” value read?
Its value is “low polyreactivity”.

Which “polyreactivity (PSR sort gate)” value does the source give for “QVQLVESGGGLVQAGGSLRLSCAASGRTFRAYGMGWYRQAPGKERELVAVISWRDGSTFYADSVKGRFTISRDNAKNTVYLQMNSLNPEDTAVYYCNTAYYPGNYSQYDYWGQGTQVTVSS” here?
The value was “low polyreactivity”.

Which “polyreactivity (PSR sort gate)” value does the source give for “QVQLVESGGGLVQAGGSLRLSCAASGRTFRDNAMGWYRQAPGKDRELVAAIDIDSSTYYADSVEGRFTISRDNAKNTVYLQMNSLKPEDTAVYYCAAESYHDGKGFPDYEYWGQGTQVTVSS” here?
The value was “low polyreactivity”.

Which “polyreactivity (PSR sort gate)” value does the source give for “QVQLVESGGGLVQAGGSLRLSCAASGRTFRDYAMGWYRQEPGKESELVAAITWIGGTTYYADSVKGRFTISRDNAKNTVYLQMNSLKPEDTAVYYCAKKRYHWYGRYYYWGQGTQVTVSS” here?
Its value is “high polyreactivity”.

With “QVQLVESGGGLVQAGGSLRLSCAASGRTFRFDAMGWYRQAPGKEREFVAAISRSVGSTYYADSVKGRFTISRDNAKTTVYLQMNSLKPEDTAVYYCNGDYRSRYVEYDYWGQGTQVTVSS” as the sequence, how does the “polyreactivity (PSR sort gate)” value read?
The value was “high polyreactivity”.

With “QVQLVESGGGLVQAGGSLRLSCAASGRTFRFNAMGWYRPAPGKERELVAAIRWSGSSTYYADSVKGRFTISRDNAKNTVYLQMNSLKPEDTAVYYSAKRVKTTWFGYWGQGTQVTVSS” as the sequence, how does the “polyreactivity (PSR sort gate)” value read?
The value was “high polyreactivity”.

With “QVQLVESGGGLVQAGGSLRLSCAASGRTFRFNAMGWYRQAPGKERELVAAISSGGNTYYADSVKGRFTISRDNAKNTVYLQMNSLKPEDTAVYYCNTVYLYGTHDYWGQGTQVTVSS” as the sequence, how does the “polyreactivity (PSR sort gate)” value read?
Its value is “low polyreactivity”.
